The values below come from patent publication US8637465B2, “Fibroblast growth factor receptor-derived peptides binding to NCAM” (Kobenhavns Universitet, priority 2009, dated 2014).

As usually defined, the Kd is the constant that tells how readily two partners part at equilibrium.

Entries after “also recorded” stand apart in the source; their conditions may differ.

For assay [1], the target named is T1, FGFR Ig2-NCAM F3(1-2) binding (Mus musculus, UniProt P16092).
T1 construct: AGHHHHHH and amino acids 140-251 of FGFR (SwissProt p16092); made in house; host or cells: Pichia pastoris KM71
T1 sequence (P16092 140-251): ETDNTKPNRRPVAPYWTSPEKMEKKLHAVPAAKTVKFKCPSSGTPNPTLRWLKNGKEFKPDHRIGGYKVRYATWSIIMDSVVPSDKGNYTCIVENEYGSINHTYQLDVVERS
Put plainly: SPR analysis of inhibition of FGFR Ig2-NCAM F3(1-2) binding. Set-up: species or system mouse FGFR1, rat NCAM. To be noted: 20 μM Ig2 module of FGFR, indicated concentrations of SOS; FIG. 4. The procedure:
The binding of 20 μM Ig2 module of FGFR to the immobilized NCAM F3 modules 1-2 was performed using indicated concentrations of SOS. The experiment was repeated 9 times. Immobilization of the NCAM and FGFR modules and binding analysis were performed using a BIAcore2000 instrument (Biosensor AB, Sweden) at 25° C. using 10 mM sodium phosphate containing 150 mM NaCl (pH 7.4) as running buffer. Data were analyzed by nonlinear curve fitting using the manufacturer's software. The FGFR Ig module 2 and NCAM F3 modules 1-2 were immobilized on sensor chip CM5 using an amine coupling kit (Biosensor AB) as follows: the chip was activated by 20 μl activation solution; the protein was immobilized using 12 μl of 20 μg/ml protein in 10 mM sodium acetate buffer (pH 6.0); the chip was blocked by 35 μl blocking solution. The curves corresponding to the difference between binding to ligand (immobilized molecule) and a blank chip were used for analysis. One of the identified clusters (the first one) is located in the close vicinity of the sites in Ig2 for binding of FGF, heparin and Ig2 (FIG. 3) (Plotnikov et al., 1999; Pellegrini et al., 2000). […] To verify this assumption, we tested sucrose octasulphate (SOS), a well-known heparin analogue, for its ability to inhibit binding of soluble Ig2 to the immobilized NCAM F3 modules.

For assay [2], the target named is T2, fibronectin modules (F3(1-2)) of NCAM (Rattus norvegicus, UniProt P13596).
T2 construct: amino acids 507-611 and 507-705 of NCAM (SwissProt p13596), respectively; made in house; host or cells: Pichia pastoris KM71
As to the kind of experiment: Binding of FGFR1-Ig2 derived peptides to immobilized fibronectin modules (F3(1-2)) of NCAM. To be noted: FIG. 5 and FIG. 6. The method, then:
Immobilization of the NCAM and FGFR modules and binding analysis were performed using a BIAcore2000 instrument (Biosensor AB, Sweden) at 25° C. using 10 mM sodium phosphate containing 150 mM NaCl (pH 7.4) as running buffer. Data were analyzed by nonlinear curve fitting using the manufacturer's software. The FGFR Ig module 2 and NCAM F3 modules 1-2 were immobilized on sensor chip CM5 using an amine coupling kit (Biosensor AB) as follows: the chip was activated by 20 μl activation solution; the protein was immobilized using 12 μl of 20 μg/ml protein in 10 mM sodium acetate buffer (pH 6.0); the chip was blocked by 35 μl blocking solution. The curves corresponding to the difference between binding to ligand (immobilized molecule) and a blank chip were used for analysis.

Assay [3] has as its target T3, FGFR1 Ig2 module (Mus musculus, UniProt P16092).
T3 construct: AGHHHHHH and amino acids 140-251 of FGFR (SwissProt p16092); made in house; host or cells: Pichia pastoris KM71
T3 sequence (P16092 140-251): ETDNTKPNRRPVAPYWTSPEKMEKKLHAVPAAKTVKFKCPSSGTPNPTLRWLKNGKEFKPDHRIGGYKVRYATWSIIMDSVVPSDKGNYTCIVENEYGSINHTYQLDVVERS
Put plainly: SPR binding of soluble NCAM F3 modules 1-2 to immobilized FGFR Ig2 module. To be noted: 25° C., pH 7.4, FIG. 1B, estimated. The source says: (§1) To study the binding properties between the FGFR Ig2 module and NCAM, we used recombinant proteins of the NCAM F3 modules 1-2 and the FGFR1 Ig2 module. Both proteins were properly folded as judged by one-dimensional NMR.
(§2) The Ig2 module of mouse FGFR1 (IIIc isoform) and rat NCAM F3 modules 1-2 were produced. Both proteins were expressed in a KM71 strain of yeast expression system of P. pastoris (Invitrogen, USA). The FGFR Ig module 2 consists of AGHHHHHH and amino acids 140-251 of FGFR (SwissProt p16092) and the combined F3 modules 1 and 2 consist of AGHHHHHH and amino acids 507-611 and 507-705 of NCAM (SwissProt p13596), respectively. For the protein expression the following media were used: BMGH (0.1 M potassium phosphate pH 6.0, 3.4 g/L yeast nitrogen base (without amino acids and ammonium sulphate), 10 g/L ammonium sulphate, 400 μg/L D-biotin, 60 mg/L L-histidine, 2% glycerol) and BMMH (0.1 M potassium phosphate pH 6.0, 3.4 g/L yeast nitrogen base (without amino acids and ammonium sulphate), 10 g/L ammonium sulphate, 400 μg/L D-biotin, 60 mg/L L-histidine, 1% methanol). […]
(§3) Immobilization of the NCAM and FGFR modules and binding analysis were performed using a BIAcore2000 instrument (Biosensor AB, Sweden) at 25° C. using 10 mM sodium phosphate containing 150 mM NaCl (pH 7.4) as running buffer. Data were analyzed by nonlinear curve fitting using the manufacturer's software. […]

Assay [4] deals with T4, FGFR Ig2-Ig3 construct (Mus musculus, UniProt P16092).
T4 construct: the double-module FGFR Ig2-Ig3 construct
T4 sequence (P16092 141-365 limits assumed): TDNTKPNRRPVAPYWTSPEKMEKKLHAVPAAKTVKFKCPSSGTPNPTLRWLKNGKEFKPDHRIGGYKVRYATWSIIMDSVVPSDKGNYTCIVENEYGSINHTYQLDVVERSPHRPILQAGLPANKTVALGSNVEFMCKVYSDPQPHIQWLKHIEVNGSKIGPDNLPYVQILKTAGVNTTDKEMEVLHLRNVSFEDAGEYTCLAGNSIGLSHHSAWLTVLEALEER
The following applies: SPR; Kiselyov et al., 2003; read-out: dissociation constant (Kd), NCAM F3 modules 1-2 binding to FGFR Ig2-Ig3 construct; cited from earlier work. For orientation: Surface plasmon resonance follows binding to a sensor surface in real time, without labels.

The target in assay [5] is T5, NCAM F3 modules 1-2 (Rattus norvegicus, UniProt P13596).
T5 construct: amino acids 507-611 and 507-705 of NCAM (SwissProt p13596), respectively; made in house; host or cells: Pichia pastoris KM71
Put plainly: SPR binding of soluble FGFR Ig2 module to immobilized NCAM F3 modules 1-2. To be noted: 25° C., pH 7.4, FIG. 1A, estimated.
From the text: as §1, §2, §3

Consider `O=S(=O)(O)OC[C@H]1O[C@@](COS(=O)(=O)O)(O[C@H]2O[C@H](COS(=O)(=O)O)[C@@H](OS(=O)(=O)O)[C@H](OS(=O)(=O)O)[C@H]2OS(=O)(=O)O)[C@@H](OS(=O)(=O)O)[C@@H]1OS(=O)(=O)O` [SOS, sucrose octasulphate], for which the “inhibition of binding of soluble Ig2 to the immobilized NCAM F3 modules” value in assay [1] is “capable of inhibiting; also recorded: inhibitory effect”.

Turning to “AKTVKFK (Derived from FGFR) [SEQ ID NO:2, FGFR1-Ig2 derived peptide (amino acids 171-177)]”, the “binding to the immobilized fibronectin modules (F3(1-2)) of NCAM” value in assay [2] is listed as “binding”.

On to “RWLKNGKEFK (Derived from FGFR) [SEQ ID NO:3, FGFR1-Ig2 derived peptide (amino acids 189-198)]”, for which the “binding to the immobilized fibronectin modules (F3(1-2)) of NCAM” value in assay [2] is “binding”.

B1: NCAM F3 modules 1-2: recombinant rat NCAM fibronectin type III modules 1-2 with AGHHHHHH tag (SwissProt p13596) (protein)
chain: AGHHHHHHQADTPSSPSIDRVEPYSSTAQVQFDEPEATGGVPILKYKAEWKSLGEEAWHSKWYDAKEANMEGIVTIMGLKPETRYAVRLAALNGKGLGEISAATEFKTQPVREPSAPKLEGQMGEDGNSIKVNLIKQDDGGSPIRHYLVKYRALASEWKPEIRLPSGSDHVMLKSLDWNAEYEVYVVAENQQGKSKAAHFVFRTSAQ
Regarding B1, the Kd in assay [3] was 12 µM; in assay [4] it was 10 µM.

B2: FGFR Ig2 module: recombinant Ig2 module of mouse FGFR1 (IIIc isoform): AGHHHHHH and amino acids 140-251 of FGFR (SwissProt p16092) (protein)
chain: AGHHHHHHETDNTKPNRRPVAPYWTSPEKMEKKLHAVPAAKTVKFKCPSSGTPNPTLRWLKNGKEFKPDHRIGGYKVRYATWSIIMDSVVPSDKGNYTCIVENEYGSINHTYQLDVVERS
Turning to B2, the Kd in assay [5] is 35 µM.
